In assay [1] the target is C5-OmCI complex (human | not stated (tick)) (UniProt Q5YD59). Description: SEC-MALS.
Assay [2] addresses complement C5 (human, UniProt P01031). Description: crystal structure.

A word on the stoichiometry N: it is the number of molecules, sites or subunits per partner or assembly.

Consider “RaCI3 (from UniProt A0A146B485 25-102) (natural protein)”, for which, in assay [1], the stoichiometry N came out at 1.

B1: His-tagged OmCI carrying two glycosylation mutations (N78Q/N102Q) (natural protein)
chain: DSESDCTGSEPVDAFQAFSEGKEAYVLVRSTDPKARDCLKGEPAGEKQDNTLPVMMTFKQGTDWASTDWTFTLDGAKVTATLGQLTQNREVVYDSQSHHCHVDKVEKEVPDYEMWMLDAGGLEVEVECCRQKLEELASGRNQMYPHLKDC
Regarding B1, in assay [2], the binding result was “binds”.

Source of the values: paper PMC5771465 (Nature structural & molecular biology, 2016).
